Data: the supplement of paper PMC9170038

Tested on: MS2 coat protein
Experiment: apparent KD of MS2 coat protein; designed switch direction (-1 OFF switch, 1 ON switch): -1; higher = weaker reporter binding
Summary of the method: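 SNAP-549-labelled MS2 coat protein was titrated, doubling from 0.7 or 1.5 nM to 3 µM, over designed RNA switches transcribed on Illumina chips by stalled E. coli RNA polymerase. Runs were done without input, with 200 uM small-molecule ligand, or with an oligonucleotide input. Apparent KD is the per-design median over clusters of curve-fitted normalised fluorescence.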

[1] = Eterna round: R95, input ligand: FMN 200 uM
[2] = Eterna round: R95, input ligand: microRNA oligo, concentration not stated
[3] = Eterna round: R95, input ligand: none
[4] = input ligand: microRNA oligo, concentration not stated

AUAUUAACAUAGGAUAUCGAAUUUAUCAUUUAACGAGAAGGAUGAACAUGAGGAUCACCCAUGUGGUAUCAUGG [Mat - Exclusion 6 - JL Mod - D1] (puzzle: Exclusion 6)
apparent KD of MS2 coat protein [1]: 171 nM
apparent KD of MS2 coat protein [2]: 144 nM
apparent KD of MS2 coat protein [3]: 249 nM

AUAUUAAUAGUAAGGAUAUGCGUGUGUGUAGUUAUGCAGAAGGUACAUGAGGAUCACCCAUGUAUUAAUGUGUG [LRO-BmodExc4-08-Oppy's Opus] (Eterna round: R97, puzzle: Brourd's mod of Exclusion 4)
apparent KD of MS2 coat protein (input ligand: FMN 200 uM): 18 nM
apparent KD of MS2 coat protein (input ligand: none): 19.7 nM

AUAUUACGAGGAUAUCGUCUCUCCCACAUGAGGAUCACCCAUGUUAUCCAUGUUUCGUUUCGAGAAGGCGUAAGUU [JR_E5_Sub071] (puzzle: Exclusion 5)
apparent KD of MS2 coat protein [2]: 65.2 nM

AUAUUACGAGGAUAUCGUUUUUUUCACAUGAGGAUCACCCAUGUUAUUUAUGUUUCGUUUCGAGAAGGCGUAAGUU [JR_E5_Sub069] (puzzle: Exclusion 5)
apparent KD of MS2 coat protein [2]: 22.3 nM

AUAUUGAUAGUAAGGAUAUGCGUGUGUGUAGUGAUGCAGAAGGUACAUGAGGAUCACCCAUGUAUUAAUGUGUG [LRO-BmodExc4-10-Oppy's Opus] (Eterna round: R97, puzzle: Brourd's mod of Exclusion 4)
apparent KD of MS2 coat protein (input ligand: FMN 200 uM): 20.5 nM
apparent KD of MS2 coat protein (input ligand: none): 16.7 nM

AUAUUUAAUAUAGGAUAUAGGAAGAAUGAUGAACUAGAAGGAUAACAUACAUGAGGAUCACCCAUGUCCCAUGUGAUCACCCAU [Seems to work in some way] (Eterna round: R96, puzzle: Exclusion NG 1)
apparent KD of MS2 coat protein [4]: 257 nM

AUCAAAGAAUAUCAUAAGCACAUGAGGAUCACCCAUGUGAUGGGUGAGAGCCUGAAAGCCACUUCUGCUCGUCUUAU [Cac Sensor turn off var1 sub9] (Eterna round: R97, puzzle: Sensor, turn-off variant 1)
apparent KD of MS2 coat protein (input ligand: FMN 200 uM): 969 nM
apparent KD of MS2 coat protein (input ligand: none): 883 nM

AUCAGCUCGUCAGGAUAUGAACAUGAGGAUCACCCAUGUAAGAUCAAGCUGCUUCGGCAGCAAGUUCAGAAGGGACGAGCUGAU [ENG2/10-B3] (Eterna round: R96, puzzle: Exclusion NG 2)
apparent KD of MS2 coat protein (input ligand: FMN 200 uM): 169 nM
apparent KD of MS2 coat protein [4]: 93.3 nM
apparent KD of MS2 coat protein (input ligand: none): 112 nM

AUCAUGGGAGGAUAUCACCUAUGUUACAUGAGGAUCACCCAUGUGAGACUAAAUGACUGCUGAGAAGGCUCAACGC [Eternabot (Original) Solution 25] (Eterna round: R97, puzzle: Exclusion 5)
apparent KD of MS2 coat protein (input ligand: FMN 200 uM): 205 nM
apparent KD of MS2 coat protein (input ligand: none): 234 nM

AUCCUACAUGAGGAUCACCCAUGUCAGGAUAUCCAAGAAAUCUGGCCGUAUCGGCCAGGGAGAAGGGACAUGGU [jl-ex1-4.63 ViennaUCT mod] (Eterna round: R97, puzzle: Exclusion 1)
apparent KD of MS2 coat protein (input ligand: FMN 200 uM): 85.3 nM
apparent KD of MS2 coat protein (input ligand: none): 49 nM

AUCCUUAACAAGGAUAUCGGGCGGGAAAUUGUUUGAGAAGGUGUAACAUGAGGAUCACCCAUGUGGCGCGUGGA [-20.8, -18.9 kcal, A 28%] (Eterna round: R97, puzzle: Exclusion 6)
apparent KD of MS2 coat protein (input ligand: FMN 200 uM): 54.6 nM
apparent KD of MS2 coat protein (input ligand: none): 56.6 nM

AUCUUGUAAGGAUAUCUGACAAGUGACGAAAGUCACAGUUCAGAGAAGGUACAUGAGGAUCACCCAUGUAGAAC [Ex4-3: 41] (puzzle: Exclusion 4)
apparent KD of MS2 coat protein [2]: 15.9 nM

AUGACAGGACAUGAGGAUCACCCAUGUACACGACCAAUGACCGAGGAUAUCGAUUGCAUGCAGGUCGAGAAGGCGGAGUAUCCA [Eternabot solution 3] (Eterna round: R96, puzzle: Exclusion NG 3)
apparent KD of MS2 coat protein (input ligand: FMN 200 uM): 18.2 nM
apparent KD of MS2 coat protein [4]: 30.9 nM
apparent KD of MS2 coat protein (input ligand: none): 28.1 nM

AUGACCUAAGGAUAUACAUGAGGAUCACCCAUGUCAGGUAAGCCUGUCCGCGGUGCAUGUAGAAGGUAGCUACC [EX3 A.27] (Eterna round: R97, puzzle: Exclusion 3)
apparent KD of MS2 coat protein (input ligand: FMN 200 uM): 122 nM
apparent KD of MS2 coat protein (input ligand: none): 116 nM

AUGAGCAGACGGAGAUCCAACAUGAGGAUCACCCAUGUCUCAAAAGCUUUUUGCUCAUCUUAUUGUACCUUGGUGCG [Mat - Sensor v3 - turn-off var 1 - JL Mod - D18] (puzzle: Sensor v3, turn-off variant 1)
apparent KD of MS2 coat protein [1]: 161 nM
apparent KD of MS2 coat protein [2]: 9.21 nM
apparent KD of MS2 coat protein [3]: 170 nM

AUGAUGUUAGGAUAUCAUUGCCGGGUUUGAAAACACGGGAUUGAGAAGGAACAUGAGGAUCACCCAUGUGCCUC [EX4 C.9] (Eterna round: R97, puzzle: Exclusion 4)
apparent KD of MS2 coat protein (input ligand: FMN 200 uM): 118 nM
apparent KD of MS2 coat protein (input ligand: none): 27.5 nM

AUGCCCUGAGGAUAUCUCAUCCCGCACAUGAGGAUCACCCAUGUUCUUCUCCGGGUUUCGAGAGAAGGCAGGCCUA [Armus4] (Eterna round: R97, puzzle: Exclusion 5)
apparent KD of MS2 coat protein (input ligand: FMN 200 uM): 79.4 nM
apparent KD of MS2 coat protein (input ligand: none): 249 nM

AUGCCGCUAGGAUAUUGCAGCUGAUACAUGAGGAUCACCCAUGUGACUCGCUGGGUAGUGUAAGAAGGAGUGUGCU [Eternabot (L2) Solution 27] (Eterna round: R97, puzzle: Exclusion 5)
apparent KD of MS2 coat protein (input ligand: FMN 200 uM): 21.3 nM
apparent KD of MS2 coat protein (input ligand: none): 24 nM

AUGGAAGAGCAAUAGCUCUACAUGAGGAUCACCCAUGUAGGAAAUACUGGGUACAGCGGGCUUUUUGCUCGGCUUAU [Alacar Attempt 4] (Eterna round: R97, puzzle: Sensor, turn-off variant 1)
apparent KD of MS2 coat protein (input ligand: FMN 200 uM): 364 nM
apparent KD of MS2 coat protein (input ligand: none): 412 nM

AUGGGUCCUCACGGAGCUACAUGAGGAUCACCCAUGUGGAUUGAGGAUAUCGUAAGCCGACGGCACGAGAAGGCAGUUUACUGU [Ex NG3 #97] (Eterna round: R96, puzzle: Exclusion NG 3)
apparent KD of MS2 coat protein (input ligand: FMN 200 uM): 47.5 nM
apparent KD of MS2 coat protein [4]: 22.8 nM
apparent KD of MS2 coat protein (input ligand: none): 23.5 nM

AUGGGUCCUCUCGGAGCUACAUGAGGAUCACCCAUGUGUAUUGAGGAUAUCCACUGCUCAGGACUGGAGAAGGCAGUGUACUGU [Ex NG3 #88] (Eterna round: R96, puzzle: Exclusion NG 3)
apparent KD of MS2 coat protein (input ligand: FMN 200 uM): 56.2 nM
apparent KD of MS2 coat protein [4]: 33.5 nM
apparent KD of MS2 coat protein (input ligand: none): 59.9 nM

AUGUUACAUGAGGAUCACCCAUGUCAGGAUAUCUAUCAUAGCAUAGAAAUAUGCGGGUAGAGAAGGGACUAUCC [ChP Ext 10-04-2015 #5] (puzzle: Exclusion 1)
apparent KD of MS2 coat protein [2]: 14.7 nM

AUUACAUGAGGAUAUACAUGAGGAUCACCCAUGUAAAUAGCAGUGGUAGUCAACUCGAGUAGAAGGCGUAACGU [Eternabot (L1) Solution 51] (Eterna round: R97, puzzle: Exclusion 3)
apparent KD of MS2 coat protein (input ligand: FMN 200 uM): 67.8 nM
apparent KD of MS2 coat protein (input ligand: none): 58.7 nM

AUUAUACAUGUAGGAUAUCUGCACGUUUAGUGCAGAGAAGGACAUGAGGAUCACCCAUGUAGAUCAAUAAUAAUUAAUUUAAUU [ENG1/6-B2] (Eterna round: R96, puzzle: Exclusion NG 1)
apparent KD of MS2 coat protein (input ligand: FMN 200 uM): 889 nM
apparent KD of MS2 coat protein [4]: 203 nM
apparent KD of MS2 coat protein (input ligand: none): 202 nM

AUUAUAUAGUCAGGAUAUAGAAUAUUAUUUUAACAUGAGGAUCACCCAUGUAACCUUAUGUGUAGCUAGAAGGGACAUUUAUUA [Title] (Eterna round: R96, puzzle: Exclusion NG 2)
apparent KD of MS2 coat protein [4]: 76.6 nM

AUUAUGUAAGGAUAUCUUACAUGUGACUUCGGUCACUGUUCAGAGAAGGUACAUGAGGAUCACCCAUGUAGAAC [Ex4-3: 46] (puzzle: Exclusion 4)
apparent KD of MS2 coat protein [2]: 18 nM

AUUAUGUUAGGAUAUGCUUAUGGUGGAUAAUCGGAUAUGAUGCAGAAGGGACAUGAGGAUCACCCAUGUACUGU [EX4 #23] (Eterna round: R97, puzzle: Exclusion 4)
apparent KD of MS2 coat protein (input ligand: FMN 200 uM): 21.5 nM
apparent KD of MS2 coat protein (input ligand: none): 22.1 nM

AUUCAACAUGAGGAUCACCCAUGUGAGGAUAUGCGAGUGCAGACUUCGGUUUGAUAGAGCAGAAGGCGCAGGUA [EX1 #13] (Eterna round: R97, puzzle: Exclusion 1)
apparent KD of MS2 coat protein (input ligand: FMN 200 uM): 69.6 nM
apparent KD of MS2 coat protein (input ligand: none): 30.8 nM

AUUCCAACUUGAGGAUAUUAGUGGAACAGCCACUGAGAAGGCAGAUAACACCCUCAUAAACAUGAGGAUCACCCAUGUAGGAGA [Eternabot solution 44] (Eterna round: R96, puzzle: Exclusion NG 1)
apparent KD of MS2 coat protein (input ligand: FMN 200 uM): 132 nM
apparent KD of MS2 coat protein [4]: 78.1 nM
apparent KD of MS2 coat protein (input ligand: none): 86.3 nM

AUUCGGAUAGGAUAUACUUGAGGAUCACCCAAGUGUUUGAACUAUCGUGAUCUGAAGAGUAGAAGGAUCAUCAU [Atquedzaed] (Eterna round: R97, puzzle: Exclusion 3)
apparent KD of MS2 coat protein (input ligand: FMN 200 uM): 176 nM
apparent KD of MS2 coat protein (input ligand: none): 90.7 nM

AUUGAUAGCACAGGAUAUUGAGAUUUGAAUUGACAAGAAGGGUGUACAUGAGGAUCACCCAUGUAAUGGUUGCCUCGUUGAUUA [JR_ExcNG1_Sub004] (Eterna round: R96, puzzle: Exclusion NG 1)
apparent KD of MS2 coat protein (input ligand: FMN 200 uM): 1070 nM
apparent KD of MS2 coat protein [4]: 125 nM
apparent KD of MS2 coat protein (input ligand: none): 148 nM

AUUGAUAUUGAGGAUAUGCUUUUAUUUGUACUAGCAGAAGGCGAUACAUGAGGAUCACCCAUGUUUAUGGAAGU [JR_E6_Sub088] (puzzle: Exclusion 6)
apparent KD of MS2 coat protein [1]: 50.5 nM
apparent KD of MS2 coat protein [2]: 35.6 nM
apparent KD of MS2 coat protein [3]: 29.4 nM

AUUGUAUGAGGAUAUACACCAGUGGGAGUGUCUUGCGUGAUACAUGAGGAUCACCCAUGUAGAAGGCGUACUAC [Eternabot (L2) Solution 90] (Eterna round: R97, puzzle: Exclusion 2)
apparent KD of MS2 coat protein (input ligand: FMN 200 uM): 36.9 nM
apparent KD of MS2 coat protein (input ligand: none): 16 nM

AUUGUUUAUGUAGGAUAUGCCUGGCGUGCCUUUGCAGAAGGACAUGAGGAUCACCCAUGUAUUGCGGUCUGCGUUCAGAUCGCC [salish99_ExNG1_r4_035] (Eterna round: R96, puzzle: Exclusion NG 1)
apparent KD of MS2 coat protein (input ligand: FMN 200 uM): 27.6 nM
apparent KD of MS2 coat protein [4]: 16.7 nM
apparent KD of MS2 coat protein (input ligand: none): 24.1 nM
